Assay results: PMC9596371 (Nature Chemical Biology, 2022)

Target: OC43 spike protein (FL-GCN4-Avi-His, 2P, biotinylated) (human coronavirus OC43, strain of …, UniProt P36334, stabilised, biotin on the Avi tag)
Assay: ELISA
Conditions: both partners purified

B1: COV2-2449 IgG (antibody, V domains shown)
VH: QVQLVESGGGVVQPGRSLRLSCATSGFTFSSFALHWVRQAPGKGLEWVTVISDDGNNKYYVDSVKGRFTISRDNSKNTLFLQMNSLRVEDTAIYYCARASYNSNWSIGEYFRDWGQGTLVTVSS
VL: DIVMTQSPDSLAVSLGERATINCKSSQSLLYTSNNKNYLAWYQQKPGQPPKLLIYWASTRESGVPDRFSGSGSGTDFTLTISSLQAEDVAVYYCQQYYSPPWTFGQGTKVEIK
binding result: binds
